Measurements from the supplement of paper PMC12764529.
± gives the half width of the 95% confidence interval.

Assays:
[1] = folding stability dG unfold from trypsin proteolysis; higher = more stable
Summary of the method: (§1)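 Designed mini-proteins (under 80 residues, no cysteine) in a PA-tagged cDNA display construct were digested with trypsin and chymotrypsin. Each protease was used at 11 concentrations (threefold dilutions) plus a no-protease condition, followed by sequencing. K50 was inferred by Bayesian fitting of sequencing counts, and unfolding free energy was derived against a sequence-predicted unfolded-state K50 and a shared folded-state K50, per protease or combined. Only designs with AlphaFold2 dimer inter-PAE above 15 were kept.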

[2] = folding stability dG unfold (combined trypsin and chymotrypsin); higher = more stable
Summary of the method: as §1

[3] = folding stability dG unfold from chymotrypsin proteolysis; higher = more stable
Summary of the method: as §1

Row | Sequence | folding stability dG unfold [1] | folding stability dG unfold [2] | folding stability dG unfold [3]
1 | SADSVPIKLTFTFEVPEEIYEAAVKAIEDIFKDLGLEVEFEAKAEPGEEGVKVTVELNLTIPPNNPNLISAG [r14_76_TrMRF] | 2.44 ± 0.2 kcal/mol | 3.07 ± 0.16 kcal/mol | 3.31 ± 0.096 kcal/mol
2 | SADVVVIHARSPEELRAALEEARKEGKTVRIVVSREELDELKALLPEDVKIEVLKNENGEELVVIEVKVSAG [r14_127_TrROS_Hall] | 4.32 ± 0.23 kcal/mol | 4.15 ± 0.43 kcal/mol | 3.11 ± 0.28 kcal/mol
3 | SAEEAAKNFKPIRIRLRDPRGRLYEVERIELTPDGRLLITLRLPNETRTYLIEPDHPFPLPPDLIIEVEGSA [r9_993_TrMRF] | 2.74 ± 0.049 kcal/mol | 3.34 ± 0.08 kcal/mol | 3.59 ± 0.043 kcal/mol
4 | SAEEEEVVEVELEIEIEMTPEELEELIEALRKAAEELGFEIEDIEIRVERKEDGTLRVTIRVKIRLPKPSAG [r14_109_TrROS_Hall] | 3.68 ± 0.13 kcal/mol | 4.2 ± 0.23 kcal/mol | 4.69 ± 0.48 kcal/mol
5 | SAEKTLTIPITLENGATLTITVYEDRIEATLEVDGLTGTGYTLPDGTVVLNLRAPGNKPIASPVFTLDLSAG [r14_213_TrMRF] | 1.73 ± 0.058 kcal/mol | 2.31 ± 0.12 kcal/mol | 2.48 ± 0.06 kcal/mol
6 | SAELEELLKKAEELAKKNNVEVEVEVKLELEPVKVTEYKLNKDGKPVEKKEEEELELRLEIKVKIRPKKSAG [r14_728_TrROS_Hall] | 1.26 ± 0.2 kcal/mol | 2.58 ± 0.35 kcal/mol | 3.22 ± 0.2 kcal/mol
7 | SAELKISKIDVSSLPDGSKKVTVNFSAPNFKVTITLDKSGNVSVEVSPEARKLPPEFFNLILNLAKELGSAG [r14_555_TrMRF] | 3.64 ± 0.15 kcal/mol | 3.96 ± 0.1 kcal/mol | 4.14 ± 0.1 kcal/mol
8 | SAELLDALKKNGWTIRIPIKHPGNGETWPMPFRIEPDGDGWKISIPPPNGKPHPFKIEDIEIMPPEDLKSAG [r14_427_TrROS] | 0.723 ± 0.11 kcal/mol | 0.561 ± 0.2 kcal/mol | 0.406 ± 0.42 kcal/mol
9 | SAEMKIEKIEVKPLEEEPELVEITIKVKDPEKLKEALEKAGFTVEEVDEEEGKLTITMSREQLEKLLKASAG [r14_777_TrROS_Hall] | 1.85 ± 0.1 kcal/mol | 1.91 ± 0.31 kcal/mol | 1.68 ± 0.14 kcal/mol
10 | SAEPTLAEATNDPATGTATANFPLENLPPDYRVLAVNLETGEVTEFPPDGEVTITAPEGPVLVKLFWKGSAG [r14_134_TrMRF] | 0.608 ± 0.13 kcal/mol | 0.213 ± 0.15 kcal/mol | -0.512 ± 0.55 kcal/mol
11 | SAETKAEVFRFGDVLVVVTEERVTTPDGSERPVYTVTLLVYDPSTGKWTPFSRPFSSKEDAAKALSSGVSAG [r14_500_TrMRF] | 1.52 ± 0.07 kcal/mol | 1.98 ± 0.15 kcal/mol | 2.22 ± 0.083 kcal/mol
12 | SAETRTLTIRIPAKDLTPEQIRALLRALLPEDATITEVRIERDEDGYITVTIVVTNPDGSKQEIRLVFPSAG [r14_30_TrROS_Hall] | 2.527 ± 0.024 kcal/mol | 2.6 ± 0.085 kcal/mol | 2.64 ± 0.031 kcal/mol
13 | SAETVTITLPGATITVEKVDGKWIATVTKVEPGADKVTVEVTLTKVDEDGNTTTVTETVTIDAKTGKVLSAG [r14_724_TrROS_Hall] | 2.7 ± 0.32 kcal/mol | 2.81 ± 0.23 kcal/mol | 2.92 ± 0.19 kcal/mol
14 | SAETVVTPRRSTLPDGTRLEEDVVTLPDGTTVTPVRVVRRDPETGREVVEFWVRTTDPATGTTTTTPLPSAG [r14_324_JUSTAS] | -0.198 ± 0.12 kcal/mol | 1.23 ± 0.051 kcal/mol | 1.72 ± 0.059 kcal/mol
15 | SAEVEIEVVEKDGKLYLVIRVRFPPGLKPGDKVTLTLTLPNGAKVTITRDKDGTRYITIVVELKDLEKLSAG [r14_754_TrROS_Hall] | 3.94 ± 0.41 kcal/mol | 4.69 ± 0.22 kcal/mol | 5.23 ± 0.13 kcal/mol
16 | SAEVEVLPFEFELPNGLRVEVHLVRLPDGTVVAPVLLVEYDPVTGEPRLSRAVAVFDPSTGKVTVLPLDSAG [r14_324_TrMRF] | 3.01 ± 0.047 kcal/mol | 2.97 ± 0.042 kcal/mol | 2.993 ± 0.017 kcal/mol

Row | Sequence | folding stability dG unfold [1] | folding stability dG unfold [2] | folding stability dG unfold [3]
17 | SAEVYEFGNAVVVVTTSPDGTVRVYVFNPETGEVTEIEIHPDTPGEYKVRPLGNGEVKEATVPVSDILPVSA [r9_1071_TrMRF] | 0.851 ± 0.051 kcal/mol | 1.19 ± 0.23 kcal/mol | 1.42 ± 0.2 kcal/mol
18 | SAFNIEIEEVDPNEIYIKIDATPEQLEEIAEDIMKNFPGYKVKWEWDDEQGKIWFRIRPVPPPPPEDQNSAG [r14_600_TrROS] | 1.14 ± 0.1 kcal/mol | 1.96 ± 0.29 kcal/mol | 1.97 ± 0.13 kcal/mol
19 | SAFRIKIELWNPNGKPQEHTFPVPPGDPDKLVEEIEDEVQKHHPNDGYKMRAEILEVTPNGWVTIRIWYSAG [r14_622_TrROS] | 2.66 ± 0.077 kcal/mol | 2.79 ± 0.18 kcal/mol | 3.01 ± 0.11 kcal/mol
20 | SAGAAPGEPVVLVLPDGTVIPVIPRPDGSATLDAVAPSADGTYTVTASLPATGTTVTLELSAPPSFVAASAG [r5_394_TrMRF] | 1.43 ± 0.038 kcal/mol | 1.16 ± 0.043 kcal/mol | 0.824 ± 0.052 kcal/mol
21 | SAGAKEITAEELAEIVREFAAALPPDVKEPVTVEITVPLEDGRVLVFKVTVERSPDGVKATVEVSPGASAGG [r19_220_TrMRF] | 2.4 ± 0.13 kcal/mol | 3.21 ± 0.18 kcal/mol | 3.43 ± 0.037 kcal/mol
22 | SAGAKVTVEPVKVEPLPNGEVKVTAKVTIYDPNTTKPTEIEVTGTYKLHPNGKPVKPETIVAEAIKKAASAG [r5_604_TrMRF] | 0.426 ± 0.038 kcal/mol | 0.459 ± 0.14 kcal/mol | 0.337 ± 0.17 kcal/mol
23 | SAGALEETTLPLPRPESLPDVSPEVLAALILALLSAVGVTVEVLSSDPANPVTAMVATRDGRVVLRALASAG [r5_80_JUSTAS] | 1.58 ± 0.049 kcal/mol | 2.06 ± 0.068 kcal/mol | 2.34 ± 0.051 kcal/mol
24 | SAGAPLEVPGPLVTVTEEEVPGKPLVFIPTPDGLIVVDLVTGKAERYPLYSEEPIVLDVPPGVVIELPSAGG [r19_138_JUSTAS] | 1.02 ± 0.073 kcal/mol | 0.819 ± 0.077 kcal/mol | 0.398 ± 0.13 kcal/mol
25 | SAGASVEQWSLTSVEVTELPGPEVVVPMTARLPDGTEVVMSGVVGPGSVTLTSPDGSTSTLAIPPALASAGG [r19_84_JUSTAS] | 1.2 ± 0.023 kcal/mol | 1.03 ± 0.04 kcal/mol | 0.734 ± 0.045 kcal/mol
26 | SAGATFKPGQTVTVVEVKVEVSVSLSRNADGSVSLSVSVRVEVKTTTVTLPEPATVTLPPGVKSLEDLLSAG [r5_770_TrROS_Hall] | 2.37 ± 0.097 kcal/mol | 3.27 ± 0.089 kcal/mol | 3.73 ± 0.096 kcal/mol
27 | SAGAVEKLRKELEELGYEVELEEVEDEETGKTYFILRIRNPDGEIYEIKVDKKTGEIVEIFKVDNLEELSAG [r5_938_TrROS_Hall] | 3.83 ± 0.17 kcal/mol | 4.14 ± 0.19 kcal/mol | 4.17 ± 0.064 kcal/mol
28 | SAGDAIADLLKEAGFEIDSVDSIEPTDGSYVIGFKFEFPNGWYMEITIWIDPNNPDKIEIDIKMQPPDESAG [r5_683_TrROS] | 2.6 ± 0.28 kcal/mol | 4.06 ± 0.45 kcal/mol | 4.43 ± 0.33 kcal/mol
29 | SAGDALKDLAPDVEITPSSFPFAFPPSRPVLAASIVAHPDNTITVFLTEVHPDGGARVLVYTLHLSDKSAGG [r19_125_TrMRF] | 2.78 ± 0.12 kcal/mol | 3.05 ± 0.14 kcal/mol | 3.2 ± 0.051 kcal/mol
30 | SAGDALKEAAKPGEEVTVRLRLTLTFTTETFTDDDGRERTVETVTVTVELEARVVAVDPETGELVIELRSAG [r5_5_TrROS_Hall] | 2.56 ± 0.12 kcal/mol | 3.52 ± 0.18 kcal/mol | 4.19 ± 0.14 kcal/mol
31 | SAGDEIEEKVKEILEKLNPDEPVVIKRTKDGRILAENPKTGKFIIFDISPDGTIKIVKVVPAEEAKKLGSAG [r5_852_TrMRF] | 1.47 ± 0.12 kcal/mol | 2.18 ± 0.19 kcal/mol | 2.52 ± 0.071 kcal/mol
